B1: HCoV-NL63 receptor-binding domain (residues Gln481-Ile616) (domain or fragment)
chain: QHTDINFTATASFGGSCYVCKPHQVNISLNGNTSVCVRTSHFSIRYIYNRVKSGSPGDSSWHIYLKSGTCPFSFSKLNNFQKFKTICFSTVEVPGSCNFPLEATWHYTSYTIVGALYVTWSEGNSITGVPYPVSGI
B2: SARS-CoV receptor-binding domain (residues Arg306-Leu515) (domain or fragment)
chain: not shown

Experiments:
[1] = biological target: N-terminal peptidase domain of wild-type human ACE2 (residues Met1-Asp615) (human, UniProt Q9BYF1 18-615); experiment: SPR
[2] = biological target: N-terminal peptidase domain of human ACE2 [change] variant (residues Met1-Asp615) (human, UniProt Q9BYF1 18-615); experiment: SPR

| Binder | Kd [1] | Kd [2] |
| --- | --- | --- |
| B1 | 575 nM | 2610 nM |
| B2 | 511 nM | – |
